Measurements from PMC2756588.

T1: Abp1, P15891
T1 sequence (P15891 535-592, looked up): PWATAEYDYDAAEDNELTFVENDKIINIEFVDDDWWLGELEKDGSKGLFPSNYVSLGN

T2: Bbc1, P47068
T2 sequence (P47068 1-78, looked up): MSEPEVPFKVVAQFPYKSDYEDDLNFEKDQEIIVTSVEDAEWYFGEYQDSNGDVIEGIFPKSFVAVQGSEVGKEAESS

T3: Boi1, P38041
T3 sequence (P38041 1-86, looked up): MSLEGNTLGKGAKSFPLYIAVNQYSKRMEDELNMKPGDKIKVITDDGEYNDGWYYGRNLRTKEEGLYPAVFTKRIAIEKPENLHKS

T4: Boi2, P39969
T4 sequence (P39969 32-116, looked up): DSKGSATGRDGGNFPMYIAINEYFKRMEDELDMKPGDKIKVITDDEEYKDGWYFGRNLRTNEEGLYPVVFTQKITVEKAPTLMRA

T5: Bud14, P27637
T5 sequence (P27637 247-328, looked up): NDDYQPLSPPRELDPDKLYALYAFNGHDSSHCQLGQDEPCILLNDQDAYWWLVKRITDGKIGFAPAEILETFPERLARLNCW

T6: Bzz1-1, P38822
T6 sequence (P38822 478-572, looked up): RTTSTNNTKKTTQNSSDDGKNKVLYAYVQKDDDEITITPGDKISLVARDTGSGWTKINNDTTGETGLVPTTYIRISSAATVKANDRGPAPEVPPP

T7: Bzz1-2, P38822
T7 sequence (P38822 568-633, looked up): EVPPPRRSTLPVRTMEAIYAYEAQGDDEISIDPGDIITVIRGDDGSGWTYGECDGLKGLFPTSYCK

T8: Cdc25, P04821
T8 sequence (P04821 50-136, looked up): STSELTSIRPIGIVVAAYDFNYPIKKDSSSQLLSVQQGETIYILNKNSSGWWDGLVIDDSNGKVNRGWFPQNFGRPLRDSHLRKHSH

T9: Cyk3, Q07533
T9 sequence (Q07533 1-83, looked up): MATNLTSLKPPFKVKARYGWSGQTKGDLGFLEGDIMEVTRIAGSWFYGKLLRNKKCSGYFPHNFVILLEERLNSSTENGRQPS

T10: Fus1, P11710
T10 sequence (P11710 432-512, looked up): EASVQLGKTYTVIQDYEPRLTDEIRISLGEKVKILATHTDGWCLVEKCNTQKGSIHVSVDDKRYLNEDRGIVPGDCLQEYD

T11: Hof1, Q05080
T11 sequence (Q05080 590-669, looked up): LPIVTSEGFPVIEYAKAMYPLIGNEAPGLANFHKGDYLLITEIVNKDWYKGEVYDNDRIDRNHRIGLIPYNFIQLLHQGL

T12: Hse1, P38753
T12 sequence (P38753 208-285, looked up): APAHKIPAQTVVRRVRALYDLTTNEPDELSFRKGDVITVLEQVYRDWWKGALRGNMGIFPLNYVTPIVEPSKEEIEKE

T13: Lsb1, P53281
T13 sequence (P53281 45-122, looked up): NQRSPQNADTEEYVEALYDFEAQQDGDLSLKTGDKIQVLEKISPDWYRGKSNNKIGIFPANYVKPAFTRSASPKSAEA

T14: Lsb3, P43603
T14 sequence (P43603 385-451, looked up): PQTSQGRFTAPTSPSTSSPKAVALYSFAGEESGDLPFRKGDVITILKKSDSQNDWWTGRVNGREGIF

T15: Lsb4, P32793
T15 sequence (P32793 402-468, looked up): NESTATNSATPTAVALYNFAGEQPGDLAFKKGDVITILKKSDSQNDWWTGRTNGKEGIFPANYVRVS

T16: Myo5, Q04439
T16 sequence (Q04439 1072-1160, looked up): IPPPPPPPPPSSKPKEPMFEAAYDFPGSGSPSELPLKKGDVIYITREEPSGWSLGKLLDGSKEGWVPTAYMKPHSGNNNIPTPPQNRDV

T17: Nbp2, Q12163
T17 sequence (Q12163 103-180, looked up): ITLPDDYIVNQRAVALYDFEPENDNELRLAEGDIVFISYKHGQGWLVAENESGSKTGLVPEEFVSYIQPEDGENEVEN

T18: Pex13, P80667
T18 sequence (P80667 295-386, looked up): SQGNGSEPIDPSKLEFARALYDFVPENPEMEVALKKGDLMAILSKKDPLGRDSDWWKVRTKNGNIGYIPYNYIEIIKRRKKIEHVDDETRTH

T19: Pin3, Q06449
T19 sequence (Q06449 53-122, looked up): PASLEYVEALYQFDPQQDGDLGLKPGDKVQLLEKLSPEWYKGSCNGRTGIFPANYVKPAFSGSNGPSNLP

T20: Sla1-2, P32790
T20 sequence (P32790 60-140, looked up): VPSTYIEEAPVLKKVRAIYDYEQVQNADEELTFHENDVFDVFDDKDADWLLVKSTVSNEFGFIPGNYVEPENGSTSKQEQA

T21: Sla1-3, P32790
T21 sequence (P32790 344-424, looked up): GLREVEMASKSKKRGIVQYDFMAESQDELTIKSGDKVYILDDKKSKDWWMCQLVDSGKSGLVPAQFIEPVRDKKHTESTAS


target: T1, Abp1, P15891; experiment: SPOT array; conditions: median of control spots 935

Binder	SPOT intensity
NENKKLPPAPTVFGL	9
EREKALPPIPFTTTL	0
DLFKPLPEPPTELGR	0

target: T2, Bbc1, P47068; experiment: SPOT array; conditions: median of control spots 796

Binder	SPOT intensity
NENKKLPPAPTVFGL	0
EREKALPPIPFTTTL	0
DLFKPLPEPPTELGR	0

target: Bem1-1, P29366; experiment: SPOT array; conditions: median of control spots 4282
Sequence (P29366 55-141): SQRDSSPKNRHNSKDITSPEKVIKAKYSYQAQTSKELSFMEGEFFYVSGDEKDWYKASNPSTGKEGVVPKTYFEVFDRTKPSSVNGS

Binder	SPOT intensity
NENKKLPPAPTVFGL	2
EREKALPPIPFTTTL	1
DLFKPLPEPPTELGR	0

target: Bem1-2, P29366; experiment: SPOT array; conditions: median of control spots 4347
Sequence (P29366 139-227): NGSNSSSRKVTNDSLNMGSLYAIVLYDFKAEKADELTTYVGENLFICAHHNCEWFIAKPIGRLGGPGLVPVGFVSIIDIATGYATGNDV

Binder	SPOT intensity
NENKKLPPAPTVFGL	0
EREKALPPIPFTTTL	0
DLFKPLPEPPTELGR	0

target: T3, Boi1, P38041; experiment: SPOT array; conditions: median of control spots 1162

Binder	SPOT intensity
NENKKLPPAPTVFGL	2
EREKALPPIPFTTTL	0
DLFKPLPEPPTELGR	0

target: T4, Boi2, P39969; experiment: SPOT array; conditions: median of control spots 1161

Binder	SPOT intensity
NENKKLPPAPTVFGL	0
EREKALPPIPFTTTL	0
DLFKPLPEPPTELGR	0

target: T5, Bud14, P27637; experiment: SPOT array; conditions: median of control spots 956

Binder	SPOT intensity
NENKKLPPAPTVFGL	2
EREKALPPIPFTTTL	0
DLFKPLPEPPTELGR	0

target: T6, Bzz1-1, P38822; experiment: SPOT array; conditions: median of control spots 4446

Binder	SPOT intensity
NENKKLPPAPTVFGL	3
EREKALPPIPFTTTL	0
DLFKPLPEPPTELGR	0

target: T7, Bzz1-2, P38822; experiment: SPOT array; conditions: median of control spots 4538

Binder	SPOT intensity
NENKKLPPAPTVFGL	0
EREKALPPIPFTTTL	0
DLFKPLPEPPTELGR	0

target: T8, Cdc25, P04821; experiment: SPOT array; conditions: median of control spots 969

Binder	SPOT intensity
NENKKLPPAPTVFGL	4
EREKALPPIPFTTTL	0
DLFKPLPEPPTELGR	0

target: T9, Cyk3, Q07533; experiment: SPOT array; conditions: median of control spots 1451

Binder	SPOT intensity
NENKKLPPAPTVFGL	1
EREKALPPIPFTTTL	0
DLFKPLPEPPTELGR	0

target: T10, Fus1, P11710; experiment: SPOT array; conditions: median of control spots 1200

Binder	SPOT intensity
NENKKLPPAPTVFGL	0
EREKALPPIPFTTTL	0
DLFKPLPEPPTELGR	0

target: GST; experiment: SPOT array; conditions: median of control spots 978

Binder	SPOT intensity
NENKKLPPAPTVFGL	0
EREKALPPIPFTTTL	0
DLFKPLPEPPTELGR	0

target: T11, Hof1, Q05080; experiment: SPOT array; conditions: median of control spots 4086

Binder	SPOT intensity
NENKKLPPAPTVFGL	25
EREKALPPIPFTTTL	354
DLFKPLPEPPTELGR	2

target: T12, Hse1, P38753; experiment: SPOT array; conditions: median of control spots 1727

Binder	SPOT intensity
NENKKLPPAPTVFGL	0
EREKALPPIPFTTTL	1
DLFKPLPEPPTELGR	1

target: T13, Lsb1, P53281; experiment: SPOT array; conditions: median of control spots 388

Binder	SPOT intensity
NENKKLPPAPTVFGL	0
EREKALPPIPFTTTL	16
DLFKPLPEPPTELGR	0

target: T14, Lsb3, P43603; experiment: SPOT array; conditions: median of control spots 406

Binder	SPOT intensity
NENKKLPPAPTVFGL	1
EREKALPPIPFTTTL	4
DLFKPLPEPPTELGR	6

target: T15, Lsb4, P32793; experiment: SPOT array; conditions: median of control spots 397

Binder	SPOT intensity
NENKKLPPAPTVFGL	0
EREKALPPIPFTTTL	2
DLFKPLPEPPTELGR	0

target: Myo3, P36006; experiment: SPOT array; conditions: median of control spots 468

Binder	SPOT intensity
NENKKLPPAPTVFGL	0
EREKALPPIPFTTTL	0
DLFKPLPEPPTELGR	0

target: T16, Myo5, Q04439; experiment: SPOT array; conditions: median of control spots 471

Binder	SPOT intensity
NENKKLPPAPTVFGL	0
EREKALPPIPFTTTL	0
DLFKPLPEPPTELGR	0

target: T17, Nbp2, Q12163; experiment: SPOT array; conditions: median of control spots 357

Binder	SPOT intensity
NENKKLPPAPTVFGL	0
EREKALPPIPFTTTL	0
DLFKPLPEPPTELGR	0

target: T18, Pex13, P80667; experiment: SPOT array; conditions: median of control spots 1341

Binder	SPOT intensity
NENKKLPPAPTVFGL	9
EREKALPPIPFTTTL	12
DLFKPLPEPPTELGR	47

target: T19, Pin3, Q06449; experiment: SPOT array; conditions: median of control spots 2171

Binder	SPOT intensity
NENKKLPPAPTVFGL	0
EREKALPPIPFTTTL	2
DLFKPLPEPPTELGR	0

target: Rvs167, P39743; experiment: SPOT array; conditions: median of control spots 2707
Sequence (P39743 419-482): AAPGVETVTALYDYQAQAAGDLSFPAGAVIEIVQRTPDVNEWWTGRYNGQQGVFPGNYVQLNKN

Binder	SPOT intensity
NENKKLPPAPTVFGL	2
EREKALPPIPFTTTL	2
DLFKPLPEPPTELGR	0

target: Sho1, P40073; experiment: SPOT array; conditions: median of control spots 1148
Sequence (P40073 287-367): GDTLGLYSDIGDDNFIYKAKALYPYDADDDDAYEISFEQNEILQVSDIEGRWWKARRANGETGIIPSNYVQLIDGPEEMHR

Binder	SPOT intensity
NENKKLPPAPTVFGL	927
EREKALPPIPFTTTL	1480
DLFKPLPEPPTELGR	1320

target: T20, Sla1-2, P32790; experiment: SPOT array; conditions: median of control spots 712

Binder	SPOT intensity
NENKKLPPAPTVFGL	0
EREKALPPIPFTTTL	1
DLFKPLPEPPTELGR	0

target: T21, Sla1-3, P32790; experiment: SPOT array; conditions: median of control spots 5475

Binder	SPOT intensity
NENKKLPPAPTVFGL	1
EREKALPPIPFTTTL	0
DLFKPLPEPPTELGR	0
